Here are results for eleven molecules from patent US20210284724A1 (I MAB BIOPHARMA US, published 2021).

Read-outs that look alike come from different tables or passages of the source.

In assay [1] the target is T1, human CXCL13 (human, UniProt O43927 23-109).
T1 construct: also called huCXCL13; rhCXCL13
T1 sequence (looked up): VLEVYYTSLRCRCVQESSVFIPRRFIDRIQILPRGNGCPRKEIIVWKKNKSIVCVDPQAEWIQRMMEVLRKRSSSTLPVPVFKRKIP
Briefly: ELISA, huCXCL13 coated on the plate, full length humanized IgG1 titrated, OD450. Background: An ELISA detects its analyte on a solid surface through an enzyme-linked reagent.

Assay [2] has as its target T1, human CXCL13. Briefly: SPR Biacore T200. The protocol: (§1) In the second approach, mutations were carried out by multiple libraries including 4 different sub libraries, such as saturated mutation libraries by CDR walking for CDR L1, CDR L3, CDR H3 or CDR L2, CDR H1, CDR H2 and saturated mutation libraries by three aa mutated continuously for CDR H3 or CDR L3. After finishing construction of phage sub libraries, antigen CXCL13 screening followed. Antibodies of these sequences were generated, and affinity testing was performed by Biacore T200. To further optimize the antibodies, the lead clones were then back mutated to its humanized counterpart one aa by one aa. Sequences were generated and synthesized for antibodies. Affinity was tested by Biacore T200.

The target of assay [3] is T1, human CXCL13. Nature of the assay: SPR Biacore T200. The text has this:
In the first approach, mutations were chosen to target the hotspots in LCDR1, HCDR2 and HCDR3. Usually, CDR3 contributes most to antigen binding and heavy chain is more important than light chain for antigen binding. Moreover, LCDR1 is important for antigen binding. For the first trial, random mutations were targeted to hotspots in LCDR1, HCDR2 and HCDR3. Eliminate hotspots that code for conserved and buried amino acids in CDRs. […] After finishing construction of phage library, antigen CXCL13 screening was followed. Antibodies of these sequences were generated, and affinity testing was performed by Biacore T200.
This is another data set of the same source.

Assay [4] addresses T1, human CXCL13. Briefly: SPR Biacore T200. Here is the method: as §1
This is another data set of the same source. A general note: In SPR one partner is held on a chip, and binding of the other changes the refractive index at the surface.

Assay [5] concerns the target T1, human CXCL13. Briefly: ELISA, huCXCL13 coated on the plate, full length humanized IgG1 titrated, OD450. The gist of the method: (§2)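 EC50 values were obtained by titrating the antibodies. For this, IgG1 antibodies in serial dilution were bound for 30 min at room temperature to plates that had been coated overnight with human CXCL13 (100 μl at 0.5 μg/ml) and blocked with 200 μl 5% BSA in PBS. Detection used goat anti-human IgG Fc-HRP for 30 min at room temperature.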
The source holds these as a separate data set.

Another assay has as its target T2, cynomolgus CXCL13 (cynomolgus, UniProt H6WS58 23-109).
T2 construct: also called cynoCXCL13; Cyno CXCL13
T2 sequence: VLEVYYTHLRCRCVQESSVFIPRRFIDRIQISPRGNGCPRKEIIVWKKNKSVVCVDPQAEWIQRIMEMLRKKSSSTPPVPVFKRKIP
Briefly: ELISA, coated antigen, chimeric IgG1. Here is the method:
(§3) Elisa based binding assay. […] Briefly, 100 μl of human CXCL13 or cynomolgus CXCL13 was coated at 0.5 μg/ml overnight and then blocked by 200 μl of 5% BSA in PBS. Serial diluted antibodies were incubated with the coated antigen for 30 min at RT. The resulting plates were washed with PBS/T and incubated with goat anti-human IgG Fc-HRP for 30 min RT. The plates were developed with TMB substrate after washing with 1×PBST for 5 times and reaction stopped with 1N HCl and analyzed by spectrophotometer at OD 450-630 nm.

Assay [6] has as its target T1, human CXCL13. Nature of the assay: ELISA, coated antigen, chimeric IgG1. Here is the method: as §3
The target in assay [7] is T1, human CXCL13. Briefly: cell-based blocking ELISA, CXCL13 to CHO-K1-CXCR5. Here is the method: This example tested the blocking of the anti-CXCL13 chimeric antibodies to CHO-K1-CXCR5 cells. Briefly, 5×10⁴ CHO-K1-CXCR5 cells were plated in 96-well plate with 100 μl of culture medium and incubated at 37° C. overnight. Cells were fixed with 100 μl of 2% PFA at RT for 1 hr after washing with PBS for 1 time. Samples were blocked with 1% BSA in PBST for 1 hr at RT. Antibodies were serial diluted from 50 μg/ml by 3-fold with 1% BSA/PBST and pre-incubated with equal volume of 0.3 μg/ml human CXCL13 for 30 min at RT. 100 μl of antibody-antigen complex was transferred into each cell wells for 30 min at RT. Samples were washed with 1×PBST for 3 times and 100 μl of 3 μg/ml of human Mab5261 antibody was added into each well to capture human CXCL13 and anti-human Fc-HRP was used to indirectly detect human CXCL13 when it bound to CHO-K1-CXCR5 cells.
Then read at 450 nm. […] Among all clones, 415A3D1, 64C10G1, 1H3A11, 414D10F5, 411A11E9, 21H12D9, 71F4A3, 329F2E1 show completely blocking activity and 408E3F3, 19H7E10, 339A6E7 appeared to be partial blockers.

Assay [8] addresses T1, human CXCL13. Nature of the assay: ELISA, huCXCL13 coated on the plate, chimeric IgG1 titrated, OD450. The gist of the method:
as §2

Assay [9] concerns the target T1, human CXCL13. The assay is described as above. The procedure, abridged: as §2
This is another data set of the same source.

B1: 71F4A3-VH1VL1 (Hz71F4) (D54E) humanized IgG1 (antibody, V domains shown)
VH: EVQLVESGGGLVQPGGSLRLSCAASGIDFSRYWMSWVRQAPGKGLEWVAEINPESSTINYAPSLKDRFTISRDNAKNSLYLQMNSLRAEDTAVYYCARQDDYEYYAMDYWGQGTTVTVSS
VL: DIQMTQSPSSLSASVGDRVTITCKASQDVNTGVAWYQQKPGKAPKLLIYSASYRYTGVPSRFSGSGSGTDFTFTISSLQPEDIATYYCQQYYSTPLTFGGGTKLEIK
notes: Full length IgG1, human gamma 1 and kappa; also called Hz71F4A3
Regarding B1, in the assay with human CXCL13 [1], the “apparent EC50 (pooled screen)” value was 0.108 nM. In addition, in the assay with human CXCL13 [2], the “apparent Kd (pooled screen)” value was found to be 2.58 nM, the “apparent koff (pooled screen)” value was 0.000645 s⁻¹ and the “apparent kon (pooled screen)” value came out at 250000 M⁻¹ s⁻¹. Further, in the assay with human CXCL13 [3], the “apparent kon (pooled screen)” value came to 377000 M⁻¹ s⁻¹. Also, the “apparent koff (pooled screen)” value with human CXCL13 [4] worked out at 0.00126 s⁻¹.

B2: 005-2-45 (antibody, V domains shown)
VH: EVQLVESGGGLVQPGGSLRLSCAASGIDFSRYWMSWVRQAPGKGLEWVAEINPESSTINYAPSLKDRFTISRDNAKNSLYLQMNSLRAEDTAVYYCARQDDTRYYAMDYWGQGTTVTVSS
VL: DIQMTQSPSSLSASVGDRVTITCKASQDVNTGVAWYQQKPGKAPKLLIYSASYRYTGVPSRFSGSGSGTDFTFTISSLQPEDIATYYCQQYYSTPLTFGGGTKLEIK
For orientation: koff means the first-order rate constant of dissociation. The low end stands for slow dissociation, the high end for fast dissociation. Molecule B2 registered an off-rate constant (koff) in the assay with human CXCL13 [4] of 0.000776 s⁻¹.

B3: 005-3-18 (antibody, V domains shown)
VH: EVQLVESGGGLVQPGGSLRLSCAASGIDFSRYWMSWVRQAPGKGLEWVAEINPESSTINYAPSLKDRFTISRDNAKNSLYLQMNSLRAEDTAVYYCARQDDYEYYTMDYWGQGTTVTVSS
VL: DIQMTQSPSSLSASVGDRVTITCKVSQDVNTGVAWYQQKPGKAPKLLIYSASYRYTGVPSRFSGSGSGTDFTFTISSLQPEDIATYYCQQYWSTPLTFGGGTKLEIK
The term Kd denotes the constant that tells how readily two partners part at equilibrium. Low values mean tighter binding, high ones weaker binding. The kon is the second-order rate constant of association. Read a low kon as slower complex formation. In the case of B3, in the assay with human CXCL13 [2], the Kd was 1.24 nM, the koff stood at 0.000153 s⁻¹ and the kon was determined as 124000 M⁻¹ s⁻¹. For the same molecule, the off-rate constant (koff) with human CXCL13 [4] came out at 0.000158 s⁻¹.

B4: 71F4A3-VH1VL2 (D54E) humanized IgG1 (antibody, V domains shown)
VH: EVQLVESGGGLVQPGGSLRLSCAASGIDFSRYWMSWVRQAPGKGLEWVAEINPESSTINYAPSLKDRFTISRDNAKNSLYLQMNSLRAEDTAVYYCARQDDYEYYAMDYWGQGTTVTVSS
VL: DIQMTQSPSSLSASVGDRVTITCKASQDVNTGVAWYQQKPGKAPKLLIYSASYRYTGVPSRFSGSGSGTDFTFTISSVQPEDIATYYCQQYYSTPLTFGGGTKLEIK
notes: Full length IgG1, human gamma 1 and kappa constant domains
Usually EC50 stands for the concentration giving half of the maximal effect. A high value points to lower potency in that assay. Consider B4, for which the EC50 with human CXCL13 [1] turned out to be 0.0961 nM. This counts as picomolar.

B5: 005-3-23 (antibody, V domains shown)
VH: EVQLVESGGGLVQPGGSLRLSCAASGIDFSRYWMSWVRQAPGKGLEWVAEINPESSTINYAPSLKDRFTISRDNAKNSLYLQMNSLRAEDTAVYYCARQEDYEYYALDYWGQGTTVTVSS
VL: DIQMTQSPSSLSASVGDRVTITCKASQDVNTGVYWYQQKPGKAPKLLIYSASYRYTGVPSRFSGSGSGTDFTFTISSLQPEDIATYYCQQGYSTPLTFGGGTKLEIK
In the assay with human CXCL13 [4], B5 showed a dissociation rate constant (koff) of 0.000403 s⁻¹.

B6: 64C10G1-VH1VL3 (D53E, D107E) humanized IgG1 (antibody, V domains shown)
VH: EVQLVESGGGLVQPGGSLRLSCAASGFTFSSYAMSWVRQAPGKGLEWVATISEGGSDAYYPDNVKGRFTISRDNAKNSLYLQMNSLRAEDTAVYYCARDYYGSGYEESPMDYWGQGTLVTVSS
VL: DIQMTQSPSSLSASVGDRVTITCKASQDINKYIAWYQQKPGKAPKLLIHYTSTLQPGIPSRFSGSGSGTDFTFTISSLQPEDFATYYCLQYDNLYTFGGGTKLEIK
notes: as for B4
Regarding B6, in the assay with human CXCL13 [5], the EC50 turned out to be 0.0664 nM.

B7: 411A11E9 chimeric human IgG1 antibody (antibody, V domains shown)
VH: EVQLVESGGGLVQPGGSLKLSCVVSGFTFSDYYMAWVRQTPTKGLEWVASINYDGGDTYYRDSVKGRFTVSRNNAKSSLFLQMDSLRSEDTATYYCKTEEDYDGSYVMDAWGQGASVIVSS
VL: DIQMTQSPSFLSASVGDRVTISCKASQNINKELTWYQQKLGKAPKRLIYNTNILQTGIPSRFSGSGSNTDYTLTISSLQPEDFATYFCLQQSSLYTFGAGTKLELK
notes: Chimeric human IgG1
Broadly, the IC50 is the point on the concentration scale where inhibition reaches its midpoint. Read a high IC50 as lower potency. Take B7: the figures for the 50% effective concentration (EC50) in the assay with cynomolgus CXCL13 and with human CXCL13 [6] were 0.1 µg/mL and 0.0485 µg/mL, respectively. The IC50 with human CXCL13 [7] is 1.71 µg/mL.

B8: 21H12D9 chimeric human IgG1 antibody (antibody, V domains shown)
VH: EVQLQQSGPVLVRPGASVKMSCKASGYTFTDYYMNWVKQSHGKSLEWIGVINPNNGGTTYKEKFKGKATLTVDKSSGTAYMELNSLTSEDSAVYYCARDDYDAGYWGQGTTLTVSS
VL: DIVMTQFQKFMSTTVGDRVSITCKASQNVDTAVAWYQHKPGQSPKLLIYSASHRYTGVPDRFTGSGSGTDFTLTISNVQSEDLADYFCQQYTDFPLTFGAGTKLELK
notes: Chimeric human IgG1
Regarding B8, the EC50 amounted to 0.0488 µg/mL in the assay with cynomolgus CXCL13 and 0.0536 µg/mL with human CXCL13 [6]. This molecule also displayed a half-inhibitory concentration (IC50) in the assay with human CXCL13 [7] of 1.89 µg/mL.

B9: 64C10G1 chimeric human IgG1 antibody (antibody, V domains shown)
VH: EVQLVESGGGLVKPGGSLKLSCAASGFTFSSYAMSWVRQTPEKRLEWVATISDGGSDAYYPDNVKGRFTISRDNAKNNLYLQMSHLKSEDTAMYYCARDYYGSGYEDSPMDYWGQGTSVTVSS
VL: DIQMTQSPSSLSASLGGKVTITCKASQDINKYIAWYQHKPGKGPRLLIHYTSTLQPGIPSRFSGSGSGRDYSFSISNLEPEDFATYYCLQYDNLYTFGGGTKLEIK
notes: Chimeric human IgG1; also called chimeric 64C10G1
For B9, the EC50 in the assay with cynomolgus CXCL13 is 0.0563 µg/mL; with human CXCL13 [6] it was 0.0401 µg/mL; in the assay with human CXCL13 [8] it was 0.0305 nM. Further, in the assay with human CXCL13 [7], the IC50 stood at 1.1 µg/mL.

B10: 71F4A3 chimeric human IgG1 antibody (antibody, V domains shown)
VH: EVKLLQSGGGLVQPGGSLKLSCAASGIDFSRYWMSWVRRAPGKGLEWIGEINPDSSTINYAPSLKDKFIISRDNAKNTLYLQMSKVRSEDTALYYCARQDDYEYYAMDYWGQGTSVTVSS
VL: DIVMTQSHKSMSTSVGDRVSITCKASQDVNTGVAWYRQKPGQSPKLLIYSASYRYTGVPDRFTGSGSGTDFTFTISSVQAEDLAVYYCQQYYSTPLTFGAGTKLELK
notes: Chimeric human IgG1; also called chimeric 71F4A3
With B10, the values for the EC50 with cynomolgus CXCL13, with human CXCL13 [6] and with human CXCL13 [9] were 0.0814 µg/mL, 0.0381 µg/mL and 0.116 nM, respectively. The molecule also gave an IC50 in the assay with human CXCL13 [7] of 3.02 µg/mL.

B11: 329F2E1 chimeric human IgG1 antibody (antibody, V domains shown)
VH: EVKLLQSGGGLVQPGGSLKLSCAASGIDFSRYWMSWVRRAPGKGLEWIGEINPDSSTINYAPSLKDKFIISRDNAKNTLYLQMSKVRSEDTALYYCARQDDYDYYAMDYWGQGTSVTVSS
VL: DIVMTQSHKFMSTSVGDRVSITCKASQDVSTGVAWYQQKPGQSPKLLIYSASYRYTGVPDRFTGSGSRTDFTFTISSVQTEDPAVYYCHQYYTIPLTFGAGTELELK
notes: Chimeric human IgG1
With B11, the figures for the EC50 with cynomolgus CXCL13 and in the assay with human CXCL13 [6] were 0.0416 µg/mL and 0.0511 µg/mL, respectively. Also, it took 3.55 µg/mL to reach half-maximal inhibition with human CXCL13 [7] (IC50).
